Source: patent publication US20240352134A1

Key:
human CCR8 (human) [1] = target: human CCR8 (human) (UniProt P51685); experiment: cell-based or functional assay
human CCR8 (human) [2] = target: human CCR8 (human) (UniProt P51685); experiment: binding affinity EC50, comparison of Table 12 (FACS on CCR8-expressing cells)

Chain of human CCR8 (human) (P51685 whole entry): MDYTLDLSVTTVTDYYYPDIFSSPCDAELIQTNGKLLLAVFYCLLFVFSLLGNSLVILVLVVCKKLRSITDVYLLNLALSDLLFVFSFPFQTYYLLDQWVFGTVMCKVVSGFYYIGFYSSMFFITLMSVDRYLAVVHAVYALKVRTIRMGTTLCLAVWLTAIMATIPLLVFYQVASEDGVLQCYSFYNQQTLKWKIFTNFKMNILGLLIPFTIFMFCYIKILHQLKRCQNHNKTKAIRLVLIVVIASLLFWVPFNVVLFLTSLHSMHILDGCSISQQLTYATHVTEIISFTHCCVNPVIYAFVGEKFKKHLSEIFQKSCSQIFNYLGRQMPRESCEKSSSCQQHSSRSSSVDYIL

- Signal block Ca2+ (human CCR8 (human) [1]): 179 nM
- EC50 (human CCR8 (human) [2]): 3.2 nM
B1: SRF-114 (antibody, from another filing, V domains shown)
VH: QVQLVQSGAEVKKPGASVKVSCKASGYTFTSYYMHWVRQAPGQGLEWMGIINPSGGSTSYAQKFQGRVTMTRDTSTSTVYMELSSLRSEDTAVYYCARAVRNRFRFDYWGQGTLVTVSS
VL: QSALTQPASVSGSPGQSITISCTGTSSDVGSYNLVSWYQQHPGKAPKLMIYEVSKRPSGVSNRFSGSKSGNTASLTISGLQAEDEADYYCSSYAGSSTFVVFGGGTKLTVL
